Biological target: Recombinant human BMP10 growth factor (GF)-domain (R&D Systems) (UniProt O95393)
Test: SPR (Biacore)
Conditions: BMP10 immobilised on a CM5 Biacore chip; parent: 1.35E+05 M-1s-1

Chain of Recombinant human BMP10 growth factor (GF)-domain (R&D Systems) (O95393 317-424): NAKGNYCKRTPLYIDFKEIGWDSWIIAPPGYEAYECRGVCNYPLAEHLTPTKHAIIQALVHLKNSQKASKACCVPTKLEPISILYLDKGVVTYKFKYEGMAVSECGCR

Which kon does the source give for “BMPRII extracellular domain (ECD), wild type (from UniProt Q13873-1) ΔGDP (del of Gly, Asp and Pro in the A-loop)” here?
The kon was 49600 M⁻¹ s⁻¹.
